The values that follow are results of earlier work, collected in patent US20050107320A1, “Methods and compositions for use in interventional pharmacogenomics” (priority 2003, published 2005).

The conditions of series [1]: administered systemically.

Regarding “EPO: glycoprotein hormone involved in the growth and maturation of erythroid progenitor cells into erythrocytes”, the clinical tolerability result is given as “well tolerated clinically”. For the same substance, in series [1], the “crossing of the blood-brain barrier” value is “can cross the blood-brain barrier”.
